These results are taken from US10737082B2, “Methods for lymphatic delivery of active agents” (Sorrento Therapeutics, Inc., priority 2015, dated 2020).

Series [1] is described as follows: In vivo near infrared imaging of lymphatic delivery of fluorescently tagged Etanercept after needle array administration to the skin. On the set-up: species or system rat. Conditions: needle array device placed dorsally on rats, FIG. 8 and 9. As to the method: The ability to deliver the protein therapeutic Etanercept directly to the lymphatic system via administration to the skin was tested. Etanercept was fluorescently tagged for in vivo visualization using near infrared light as previous described, see Sevick-Muraca et al., J. Clin Invest., 124 (3), 905-914 (2014), which is incorporated by reference herein for its teachings thereof. Etanercept was administered to the skin of rats by placing a delivery device comprising an array of needles dorsally on the rats.

Series [2] can be described thus: Biodistribution of Etanercept across multiple tissue types following delivery to the skin. To be noted: delivery to the skin compared to traditional i.v., s.c., or i.d. methods, FIG. 10. Format: in vivo, rat. The text has this:
The biodistribution of Etanercept across multiple tissues types following delivery was investigated.

The nature of series [3]: Localization of Etanercept to inflamed tissues in hind limb arthritic rat model. Format: in vivo. To be noted: administered to the skin compared to subcutaneous delivery, FIG. 11A and B.
Series [4] relates to hind limb arthritic rat model. The series is described as follows: Reduction of swelling of inflamed tissues measured by ankle diameter. Format: in vivo. To be noted: same 3 mg dosage, administration to the skin compared to subcutaneous injection, FIG. 12. The protocol:
Furthermore, there was a 17% reduction in the swelling of these inflamed tissues after administration of the same 3 mg dosage of Etanercept as measured by ankle diameter (FIG. 12).

Series [5] in a line: Rate of blood serum absorption of Etanercept after delivery to the skin. Conditions: administration to the skin compared with i.v., s.c., or i.d. methods, FIG. 13. Format: in vivo.

With Etanercept, the “lymphatic uptake and distribution after administration to the skin” value in series [1] was “uptake by the lymphatic vasculature and subsequent distribution to primary and secondary lymph node tissues”. The “levels within the axillary and inguinal lymph nodes” value in series [2] was “much higher levels”. Moreover, in series [3], the “levels localized to inflamed tissues” value is on record as “higher levels”. Besides, in series [4], the “reduction in the swelling of inflamed tissues (ankle diameter)” value amounted to 17%. Also, in series [5], the “blood serum absorption rate” value is given as “approximately the same”.
